For the assay, the target named is cell surface TrkA on the human erythroleukemic cell line TF-1 (human), P04629. Briefly: cell-based or functional assay.
Chain of cell surface TrkA on the human erythroleukemic cell line TF-1 (human), P04629 (P04629 33-796): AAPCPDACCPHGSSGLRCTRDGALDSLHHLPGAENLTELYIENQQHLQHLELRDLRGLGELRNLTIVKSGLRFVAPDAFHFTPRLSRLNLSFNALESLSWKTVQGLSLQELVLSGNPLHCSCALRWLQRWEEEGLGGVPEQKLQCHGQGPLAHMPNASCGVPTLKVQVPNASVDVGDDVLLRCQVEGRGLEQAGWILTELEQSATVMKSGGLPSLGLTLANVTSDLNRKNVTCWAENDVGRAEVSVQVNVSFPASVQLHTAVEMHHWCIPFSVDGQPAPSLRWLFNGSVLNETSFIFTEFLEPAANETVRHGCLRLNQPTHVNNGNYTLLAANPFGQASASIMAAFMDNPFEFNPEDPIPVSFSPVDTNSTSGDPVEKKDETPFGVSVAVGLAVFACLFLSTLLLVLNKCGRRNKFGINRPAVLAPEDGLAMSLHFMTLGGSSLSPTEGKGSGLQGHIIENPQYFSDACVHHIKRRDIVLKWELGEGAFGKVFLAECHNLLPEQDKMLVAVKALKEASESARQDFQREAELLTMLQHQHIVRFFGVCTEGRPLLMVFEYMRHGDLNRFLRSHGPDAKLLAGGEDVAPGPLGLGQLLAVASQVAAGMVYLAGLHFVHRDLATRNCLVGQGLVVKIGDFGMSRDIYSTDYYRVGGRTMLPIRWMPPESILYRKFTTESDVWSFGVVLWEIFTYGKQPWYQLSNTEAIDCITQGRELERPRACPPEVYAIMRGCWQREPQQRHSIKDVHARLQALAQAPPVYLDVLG

B1: MNAC13 mouse antibody (antibody, mouse IgG1, kappa)
heavy: EVKLVESGGGLVQPGGSLKLSCAASGFTFSTYTMSWARQTPEKRLEWVAYISKGGGSTYYPDTVKGRFTISRDNAKNTLYLQMSSLKSEDTALYYCARGAMYGNDFFYPMDYWGQGTSVTVSSKTTPPSVYPLAPGSAAQTNSMVTLGCLVKGYFPEPVTVTWNSGSLSSGVHTFPAVLESDLYTLSSSVTVPSSPRPSETVTCNVAHPASSTKVDKKIVPRDCGCKPCICTVPEVSSVFIFPPKPKDVLTITLTPKVTCVVVDISKDDPEVQFSWFVDDVEVHTAQTQPREEQFNSTFRSVSELPIMHQDWLNGKEFKCRVNSAAFPAPIEKTISKTKGRPKAPQVYTIPPPKEQMAKDKVSLTCMITDFFPEDITVEWQWNGQPAENYKNTQPIMNTNGSYFVYSKLNVQKSNWEAGNTFTCSVLHEGLHNHHTEKSLSHSPGK
light: QIVLTQSPAIMSASLGEEITLTCSASSSVSYMHWYQQKSGTSPKLLIYTTSNLASGVPSRFSGSGSGTFYSLTISSVEAEDAADYYCHQWSSYPWTFGGGTKLEIKADAAPTVSIFPPSSEQLTSGGASVVCFLNNFYPKDINVKWKIDGSERQNGVLNSWTDQDSKDSTYSMSSTLTLTKDEYERHNSYTCEATHKTSTSPIVKSFNRNEC
The molecule B1 returned a TF-1 cell proliferation assay IC50 (NGF-induced) of 0.23 µg/mL.

These data come from patent publication US20170218087A1.
